Drawing on the Human Domainome abundance scans (Beltran et al. 2025), this text covers abundance fitness for 35 variants.

± gives the uncertainty stated by the source.

To fix the notation:
B1: V(D)J recombination-activating protein 2, residues 415 to 491; numbered along this chain, P55895 (parent)
chain: YWITCCPTCDVDINTWVPFYSTELNKPAMIYCSHGDGHWVHAQCMDLAERTLIHLSAGSNKYYCNEHVEIARALHTP

The variants in the series derive from B1. The series is described as follows: abundance fitness (aPCA) (normalised: wild type 0, dead -1); higher = more abundant; growth selection in yeast, the domain comes from the species named. The note with it: Homo sapiens.
Regarding YWITCCPTCDVDINHWVPFYSTELNKPAMIYCSHGDGHWVHAQCMDLAERTLIHLSAGSNKYYCNEHVEIARALHTP, the abundance fitness was determined as 0.03 ± 0.29.

With YWITCCPTCDVDINRWVPFYSTELNKPAMIYCSHGDGHWVHAQCMDLAERTLIHLSAGSNKYYCNEHVEIARALHTP, the abundance fitness was -0.474 ± 0.5.

On to YWITCCPTCDVDINVWVPFYSTELNKPAMIYCSHGDGHWVHAQCMDLAERTLIHLSAGSNKYYCNEHVEIARALHTP, for which the abundance fitness came to 0.015 ± 0.34.

Take YWITCCPTCDVDINMWVPFYSTELNKPAMIYCSHGDGHWVHAQCMDLAERTLIHLSAGSNKYYCNEHVEIARALHTP: the abundance fitness was -0.011 ± 0.3.

Take YWITCCPTCDVDINIWVPFYSTELNKPAMIYCSHGDGHWVHAQCMDLAERTLIHLSAGSNKYYCNEHVEIARALHTP: the abundance fitness is -0.104 ± 0.3.

As for YWITCCPTCDVDINTWVPFYRTELNKPAMIYCSHGDGHWVHAQCMDLAERTLIHLSAGSNKYYCNEHVEIARALHTP, the abundance fitness is -0.111 ± 0.12.

For the variant YWITCCPTCDVDINTWVPFYDTELNKPAMIYCSHGDGHWVHAQCMDLAERTLIHLSAGSNKYYCNEHVEIARALHTP, the abundance fitness is -0.17 ± 0.26.

Turning to YWITCCPTCDVDINTWVPFYTTELNKPAMIYCSHGDGHWVHAQCMDLAERTLIHLSAGSNKYYCNEHVEIARALHTP, the abundance fitness is -0.321 ± 0.12.

Turning to YWITCCPTCDVDINTWVPFYATELNKPAMIYCSHGDGHWVHAQCMDLAERTLIHLSAGSNKYYCNEHVEIARALHTP, the abundance fitness is -0.187 ± 0.13.

For YWITCCPTCDVDINTWVPFYFTELNKPAMIYCSHGDGHWVHAQCMDLAERTLIHLSAGSNKYYCNEHVEIARALHTP, the abundance fitness was -0.154 ± 0.14.

Take YWITCCPTCDVDINTWVPFYGTELNKPAMIYCSHGDGHWVHAQCMDLAERTLIHLSAGSNKYYCNEHVEIARALHTP: the abundance fitness was -0.108 ± 0.091.

With YWITCCPTCDVDINTWVPFYPTELNKPAMIYCSHGDGHWVHAQCMDLAERTLIHLSAGSNKYYCNEHVEIARALHTP, the abundance fitness is -0.004 ± 0.12.

YWITCCPTCDVDINTWVPFYCTELNKPAMIYCSHGDGHWVHAQCMDLAERTLIHLSAGSNKYYCNEHVEIARALHTP: the abundance fitness came to 0.015 ± 0.16.

For YWITCCPTCDVDINTWVPFYMTELNKPAMIYCSHGDGHWVHAQCMDLAERTLIHLSAGSNKYYCNEHVEIARALHTP, the abundance fitness is -0.321 ± 0.44.

For the variant YWITCCPTCDVDINTWVPFYQTELNKPAMIYCSHGDGHWVHAQCMDLAERTLIHLSAGSNKYYCNEHVEIARALHTP, the abundance fitness is -0.325 ± 0.37.

As for YWITCCPTCDVDINTWVPFYHTELNKPAMIYCSHGDGHWVHAQCMDLAERTLIHLSAGSNKYYCNEHVEIARALHTP, the abundance fitness was found to be 0.086 ± 0.35.

Regarding YWITCCPTCDVDINTWVPFYETELNKPAMIYCSHGDGHWVHAQCMDLAERTLIHLSAGSNKYYCNEHVEIARALHTP, the abundance fitness worked out at 0.119 ± 0.17.

In the case of YWITCCPTCDVDINTWVIFYSTELNKPAMIYCSHGDGHWVHAQCMDLAERTLIHLSAGSNKYYCNEHVEIARALHTP, the abundance fitness is -0.892 ± 0.29.

Turning to YWITCCPTCDVDINTWVEFYSTELNKPAMIYCSHGDGHWVHAQCMDLAERTLIHLSAGSNKYYCNEHVEIARALHTP, the abundance fitness is -0.28 ± 0.34.

As for YWITCCPTCDVDINTWVHFYSTELNKPAMIYCSHGDGHWVHAQCMDLAERTLIHLSAGSNKYYCNEHVEIARALHTP, the abundance fitness is -0.175 ± 0.3.

For YWITCCPTCDVDINTWVQFYSTELNKPAMIYCSHGDGHWVHAQCMDLAERTLIHLSAGSNKYYCNEHVEIARALHTP, the abundance fitness is -0.425 ± 0.14.

Consider YWITCCPTCDVDINTWVSFYSTELNKPAMIYCSHGDGHWVHAQCMDLAERTLIHLSAGSNKYYCNEHVEIARALHTP, for which the abundance fitness was -0.344 ± 0.17.

As to YWITCCPTCDVDINTWVNFYSTELNKPAMIYCSHGDGHWVHAQCMDLAERTLIHLSAGSNKYYCNEHVEIARALHTP, the abundance fitness is -0.453 ± 0.27.

For the variant YWITCCPTCDVDINTWVGFYSTELNKPAMIYCSHGDGHWVHAQCMDLAERTLIHLSAGSNKYYCNEHVEIARALHTP, the abundance fitness is -0.36 ± 0.2.

On to YWITCCPTCDVDINTWVMFYSTELNKPAMIYCSHGDGHWVHAQCMDLAERTLIHLSAGSNKYYCNEHVEIARALHTP, for which the abundance fitness is -0.579 ± 0.24.

For the variant YWITCCPTCDVDINTWVRFYSTELNKPAMIYCSHGDGHWVHAQCMDLAERTLIHLSAGSNKYYCNEHVEIARALHTP, the abundance fitness is -0.381 ± 0.081.

Take YWITCCPTCDVDINTWVAFYSTELNKPAMIYCSHGDGHWVHAQCMDLAERTLIHLSAGSNKYYCNEHVEIARALHTP: the abundance fitness is -0.028 ± 0.25.

In the case of YWITCCPTCDVDINTWVLFYSTELNKPAMIYCSHGDGHWVHAQCMDLAERTLIHLSAGSNKYYCNEHVEIARALHTP, the abundance fitness is -0.038 ± 0.25.

With YWITCCPTCDVDINTWVPFPSTELNKPAMIYCSHGDGHWVHAQCMDLAERTLIHLSAGSNKYYCNEHVEIARALHTP, the abundance fitness is -0.378 ± 0.26.

Turning to YWITCCPTCDVDINTWVPFVSTELNKPAMIYCSHGDGHWVHAQCMDLAERTLIHLSAGSNKYYCNEHVEIARALHTP, the abundance fitness was -0.719 ± 0.29.

For the variant YWITCCPTCDVDINTWVPFDSTELNKPAMIYCSHGDGHWVHAQCMDLAERTLIHLSAGSNKYYCNEHVEIARALHTP, the abundance fitness is -0.525 ± 0.26.

Regarding YWITCCPTCDVDINTWVPFGSTELNKPAMIYCSHGDGHWVHAQCMDLAERTLIHLSAGSNKYYCNEHVEIARALHTP, the abundance fitness is -0.28 ± 0.15.

Take YWITCCPTCDVDINTWVPFNSTELNKPAMIYCSHGDGHWVHAQCMDLAERTLIHLSAGSNKYYCNEHVEIARALHTP: the abundance fitness was -0.09 ± 0.25.

YWITCCPTCDVDINTWVPFASTELNKPAMIYCSHGDGHWVHAQCMDLAERTLIHLSAGSNKYYCNEHVEIARALHTP: the abundance fitness was -0.539 ± 0.35.

For the variant YWITCCPTCDVDINTWVPFSSTELNKPAMIYCSHGDGHWVHAQCMDLAERTLIHLSAGSNKYYCNEHVEIARALHTP, the abundance fitness is -0.513 ± 0.14.
